The results in this text go back to PMC2133036 (The Journal of Cell Biology, 1998).

The target of the assay is T1, Vma22p (S. cerevisiae, UniProt P38784 1-181).
T1 sequence (looked up): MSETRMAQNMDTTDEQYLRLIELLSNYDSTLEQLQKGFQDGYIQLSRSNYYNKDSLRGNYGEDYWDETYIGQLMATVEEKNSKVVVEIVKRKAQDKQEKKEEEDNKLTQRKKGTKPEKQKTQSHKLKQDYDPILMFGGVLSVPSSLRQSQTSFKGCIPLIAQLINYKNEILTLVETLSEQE
The assay is described as follows: cross-linking.

“And” between values parts separate entries of the source, which are not always exact repeats. Equal values may be shown once. Where only a bound is given, the exact number is not on record here.

B1: Vph1p, the 100-kD integral membrane subunit of the V-ATPase (natural protein, S. cerevisiae, UniProt P32563 1-840, looked up)
chain: MAEKEEAIFRSAEMALVQFYIPQEISRDSAYTLGQLGLVQFRDLNSKVRAFQRTFVNEIRRLDNVERQYRYFYSLLKKHDIKLYEGDTDKYLDGSGELYVPPSGSVIDDYVRNASYLEERLIQMEDATDQIEVQKNDLEQYRFILQSGDEFFLKGDNTDSTSYMDEDMIDANGENIAAAIGASVNYVTGVIARDKVATLEQILWRVLRGNLFFKTVEIEQPVYDVKTREYKHKNAFIVFSHGDLIIKRIRKIAESLDANLYDVDSSNEGRSQQLAKVNKNLSDLYTVLKTTSTTLESELYAIAKELDSWFQDVTREKAIFEILNKSNYDTNRKILIAEGWIPRDELATLQARLGEMIARLGIDVPSIIQVLDTNHTPPTFHRTNKFTAGFQSICDCYGIAQYREINAGLPTIVTFPFMFAIMFGDMGHGFLMTLAALSLVLNEKKINKMKRGEIFDMAFTGRYIILLMGVFSMYTGFLYNDIFSKTMTIFKSGWKWPDHWKKGESITATSVGTYPIGLDWAWHGTENALLFSNSYKMKLSILMGFIHMTYSYFFSLANHLYFNSMIDIIGNFIPGLLFMQGIFGYLSVCIVYKWAVDWVKDGKPAPGLLNMLINMFLSPGTIDDELYPHQAKVQVFLLLMALVCIPWLLLVKPLHFKFTHKKKSHEPLPSTEADASSEDLEAQQLISAMDADDAEEEEVGSGSHGEDFGDIMIHQVIHTIEFCLNCVSHTASYLRLWALSLAHAQLSSVLWTMTIQIAFGFRGFVGVFMTVALFAMWFALTCAVLVLMEGTSAMLHSLRLHWVESMSKFFVGEGLPYEPFAFEYKDMEVAVASASSSASS
Take B1: the “half-life of the interaction in cells (pulse-chase, cross-linkable Vph1p)” value is < 5 min and ~5 min.
